B1: HER2/neu DR supermotif exemplary peptide QGFFCPDPAPGAGGM (position 1028) (peptide)
peptide: QGFFCPDPAPGAGGM
notes: synthetic 15-mer; also called Her2/neu.1028

For the first test, the target named is HLA-A*0206 (human). Put plainly: competition with 125I probe peptide for purified HLA.
As to QLFEDNYALA [Her2/neu.106 (10-mer) QLFEDNYALA], the IC50 (as a rule, the concentration that gives 50% inhibition) came to 218 nM.

Consider ALCRWGLLLA [Her2/neu.5 (10-mer) ALCRWGLLLA], for which the IC50 came to 1950 nM.

Consider QLMPYGCLL [Her2/neu.799 QLMPYGCLL], for which the IC50 came to 712 nM.

Another test concerns the target HLA-A*0202 (human). The description is as above.
In the case of QLFEDNYALA [Her2/neu.106 (10-mer) QLFEDNYALA], the IC50 came to 662 nM.

With ALCRWGLLLA [Her2/neu.5 (10-mer) ALCRWGLLLA], the half-inhibitory concentration (IC50) worked out at 1960 nM.

QLMPYGCLL [Her2/neu.799 QLMPYGCLL] yielded an IC50 of 977 nM.

For a further test, the target named is HLA-A*6802 (human). The description is as above.
Take QLFEDNYALA [Her2/neu.106 (10-mer) QLFEDNYALA]: the IC50 came to 74 nM.

With ALCRWGLLLA [Her2/neu.5 (10-mer) ALCRWGLLLA], the IC50 was determined as 2500 nM.

On to YMIMVKCWM [Her2/neu.952 (9-mer) YMIMVKCWM], for which the IC50 was determined as 1000 nM.

For the next test, the target named is HLA-A*0203 (human). Described as above.
In turn, QLFEDNYALA [Her2/neu.106 (10-mer) QLFEDNYALA] returned an IC50 of 9.1 nM.

ALCRWGLLLA [Her2/neu.5 (10-mer) ALCRWGLLLA] came in with an IC50 of 12 nM.

QLMPYGCLL [Her2/neu.799 QLMPYGCLL] registered an IC50 of 114 nM.

The target in a further test is T1, HLA-A*0101 (human).
T1 construct: Purified HLA molecule, 5 to 500 nM in the assay; also called HLA-A1
Put plainly: competition with a 125I-labelled probe peptide for purified HLA-A*0101, gel filtration; ratio against the A*0101 standard peptide 944.02 [..] (25 nM). (Size exclusion chromatography separates by hydrodynamic size, large species first.)
As to VTACPYNY (also called Her2/neu.296) [HER2/neu peptide, position 296, 8 amino acids], the “relative binding ratio (IC50 of standard peptide / IC50 of test peptide)” value is 0.1 ratio.

For THDPSPLQRY (also called Her2/neu.1103) [HER2/neu peptide, position 1103, 10 amino acids], the “relative binding ratio (IC50 of standard peptide / IC50 of test peptide)” value was 0.0015 ratio.

On to VFETLEEITGY (also called Her2/neu.399) [HER2/neu peptide, position 399, 11 amino acids], for which the “relative binding ratio (IC50 of standard peptide / IC50 of test peptide)” value stood at 0.0045 ratio.

For the molecule TCSPQPEY (also called Her2/neu.1132) [HER2/neu peptide, position 1132, 8 amino acids], the “relative binding ratio (IC50 of standard peptide / IC50 of test peptide)” value is -0.0021 ratio.

Take TLEEITGY (also called Her2/neu.402 (8-mer)) [HER2/neu peptide, position 402, 8 amino acids]: the “relative binding ratio (IC50 of standard peptide / IC50 of test peptide)” value is -0.0021 ratio.

With TLEEITGYLY (also called Her2/neu.402) [HER2/neu peptide, position 402, 10 amino acids], the “relative binding ratio (IC50 of standard peptide / IC50 of test peptide)” value came to 1.1 ratio.

A further test concerns the target T2, HLA-A*0201 (human).
T2 construct: also called HLA-A2.1; A2.1
Put plainly: competitive inhibition of 125I-labeled probe peptide binding to purified HLA-A*0201.
As for GLACHQLCA [Her2/neu.508], the IC50 was not above 500 nM.

In turn, QLMPYGCLL [Her2/neu.799] had an IC50 not above 500 nM.

Molecule QLFEDNYALA [Her2/neu.106] showed an IC50 not above 500 nM.

The molecule ALCRWGLLLA [Her2/neu.5] gave a concentration for half-maximal inhibition (IC50) not above 500 nM.

YMIMVKCWM [Her2/neu.952] yielded an IC50 not above 500 nM.

The next test addresses T3, HLA-A*0101 (human).
T3 construct: also called HLA-A1
Put plainly: competition with 125I-labelled probe peptide for purified HLA-A*0101, gel filtration.
On to DMGDLVDAEEY [HER2/neu peptide, position 1013, 11 amino acids], for which the relative binding ratio is 0.0027 ratio (IC50 of standard peptide / IC50 of test peptide).

For the next test, the target named is T4, HLA-A*0301 (purified HLA class I molecule) (human).
T4 construct: also called A3
Put plainly: inhibition of 125I probe peptide binding to purified HLA; ratio to standard peptide.
As to ESMPNPEGR [HER2/neu peptide, position 280, 9 amino acids], the relative binding ratio was 0.0003 ratio (IC50 standard / IC50 test).

The next test addresses T5, HLA-DRB1*0101 (human).
T5 construct: also called DR1
Put plainly: competition with 125I-labeled standard peptide, purified HLA-DR, gel filtration.
Consider B1, for which the relative binding ratio is -0.0005 ratio (standard IC50 / test IC50).

The target in a further test is T6, HLA-DRB1*0401 (human).
T6 construct: also called DR4w4
The test is described as above.
Turning to B1, the relative binding ratio was 0.023 ratio (standard IC50 / test IC50).

For a further test, the target named is T7, HLA-DRB1*0701 (human).
T7 construct: also called DR7
Described as above.
As for B1, the relative binding ratio is -0.0011 ratio (standard IC50 / test IC50).

A further test deals with HLA-A*1101 (purified HLA class I molecule) (human). Put plainly: inhibition of 125I probe peptide binding to purified HLA; ratio to standard peptide; minus sign not explained.
Take ESMPNPEGR [HER2/neu peptide, position 280, 9 amino acids]: the relative binding ratio is -0.0002 ratio (IC50 standard / IC50 test).

For the origin of these results see patent US20040018971A1 (published 2004).
